Assay results published in paper PMC2878840.

Biological target: hypoglycosylated E-cadherin variant V13 (V13-flag) (human)
Assay: co-IP

- fold change of co-precipitated PP2A against wild type E-cadherin: 2 fold
Substance: protein phosphatase 2A catalytic subunit (from UniProt A0A8I3NN81 1-306) (enzyme)
